The target in one data set is human NaV1.7 (Homo sapiens, UniProt Q15858).
Data set [1] deals with T1, human NaV1.5 (Homo sapiens, UniProt Q14524). In words: IonWorks Quattro (IWQ) electrophysiology, human NaV1.5. Particulars: human; read-out: Glu mutant IWQ IC50 NaV1.5. The format is cell-based. (The patch-clamp technique gives a direct electrical read-out from membranes.)
The target of the next data set is human NaV1.4 (Homo sapiens, UniProt P35499). The data set is described as follows: PatchXpress (PX) automated electrophysiology, human NaV1.4. The format is cell-based. The following applies: for IC50: PX platform, at least ten cells, two to three data points per concentration. The protocol:
Human NaV (hNaV) stably transfected cell lines in HEK293 or CHO backgrounds and cell culture methods were as previously described. hNaV1.1-hNaV1.7 cells were obtained from Eurofins Pharma Discovery Services (St. Charles, MO), and hNaV1.8 cells were generated in house. Whole cell patch clamp, PatchXpress, and IWQ electrophysiology voltage protocols as well as DRG neuron isolation were carried out as previously described. NaV1.7-NaV1.5 chimeras were generated and evaluated in BacMam transduced U2-OS cells on the IWQ platform as previously described.

Data set [2] addresses T1, human NaV1.5. The data set is described as follows: PatchXpress (PX) automated electrophysiology, human NaV1.5. The data set is classed as cell-based. Particulars: PX platform; at least ten cells, two to three data points per concentration.

What is called IC50 is the concentration needed to halve the response being measured.

Chain of human NaV1.7 (Q15858 whole entry): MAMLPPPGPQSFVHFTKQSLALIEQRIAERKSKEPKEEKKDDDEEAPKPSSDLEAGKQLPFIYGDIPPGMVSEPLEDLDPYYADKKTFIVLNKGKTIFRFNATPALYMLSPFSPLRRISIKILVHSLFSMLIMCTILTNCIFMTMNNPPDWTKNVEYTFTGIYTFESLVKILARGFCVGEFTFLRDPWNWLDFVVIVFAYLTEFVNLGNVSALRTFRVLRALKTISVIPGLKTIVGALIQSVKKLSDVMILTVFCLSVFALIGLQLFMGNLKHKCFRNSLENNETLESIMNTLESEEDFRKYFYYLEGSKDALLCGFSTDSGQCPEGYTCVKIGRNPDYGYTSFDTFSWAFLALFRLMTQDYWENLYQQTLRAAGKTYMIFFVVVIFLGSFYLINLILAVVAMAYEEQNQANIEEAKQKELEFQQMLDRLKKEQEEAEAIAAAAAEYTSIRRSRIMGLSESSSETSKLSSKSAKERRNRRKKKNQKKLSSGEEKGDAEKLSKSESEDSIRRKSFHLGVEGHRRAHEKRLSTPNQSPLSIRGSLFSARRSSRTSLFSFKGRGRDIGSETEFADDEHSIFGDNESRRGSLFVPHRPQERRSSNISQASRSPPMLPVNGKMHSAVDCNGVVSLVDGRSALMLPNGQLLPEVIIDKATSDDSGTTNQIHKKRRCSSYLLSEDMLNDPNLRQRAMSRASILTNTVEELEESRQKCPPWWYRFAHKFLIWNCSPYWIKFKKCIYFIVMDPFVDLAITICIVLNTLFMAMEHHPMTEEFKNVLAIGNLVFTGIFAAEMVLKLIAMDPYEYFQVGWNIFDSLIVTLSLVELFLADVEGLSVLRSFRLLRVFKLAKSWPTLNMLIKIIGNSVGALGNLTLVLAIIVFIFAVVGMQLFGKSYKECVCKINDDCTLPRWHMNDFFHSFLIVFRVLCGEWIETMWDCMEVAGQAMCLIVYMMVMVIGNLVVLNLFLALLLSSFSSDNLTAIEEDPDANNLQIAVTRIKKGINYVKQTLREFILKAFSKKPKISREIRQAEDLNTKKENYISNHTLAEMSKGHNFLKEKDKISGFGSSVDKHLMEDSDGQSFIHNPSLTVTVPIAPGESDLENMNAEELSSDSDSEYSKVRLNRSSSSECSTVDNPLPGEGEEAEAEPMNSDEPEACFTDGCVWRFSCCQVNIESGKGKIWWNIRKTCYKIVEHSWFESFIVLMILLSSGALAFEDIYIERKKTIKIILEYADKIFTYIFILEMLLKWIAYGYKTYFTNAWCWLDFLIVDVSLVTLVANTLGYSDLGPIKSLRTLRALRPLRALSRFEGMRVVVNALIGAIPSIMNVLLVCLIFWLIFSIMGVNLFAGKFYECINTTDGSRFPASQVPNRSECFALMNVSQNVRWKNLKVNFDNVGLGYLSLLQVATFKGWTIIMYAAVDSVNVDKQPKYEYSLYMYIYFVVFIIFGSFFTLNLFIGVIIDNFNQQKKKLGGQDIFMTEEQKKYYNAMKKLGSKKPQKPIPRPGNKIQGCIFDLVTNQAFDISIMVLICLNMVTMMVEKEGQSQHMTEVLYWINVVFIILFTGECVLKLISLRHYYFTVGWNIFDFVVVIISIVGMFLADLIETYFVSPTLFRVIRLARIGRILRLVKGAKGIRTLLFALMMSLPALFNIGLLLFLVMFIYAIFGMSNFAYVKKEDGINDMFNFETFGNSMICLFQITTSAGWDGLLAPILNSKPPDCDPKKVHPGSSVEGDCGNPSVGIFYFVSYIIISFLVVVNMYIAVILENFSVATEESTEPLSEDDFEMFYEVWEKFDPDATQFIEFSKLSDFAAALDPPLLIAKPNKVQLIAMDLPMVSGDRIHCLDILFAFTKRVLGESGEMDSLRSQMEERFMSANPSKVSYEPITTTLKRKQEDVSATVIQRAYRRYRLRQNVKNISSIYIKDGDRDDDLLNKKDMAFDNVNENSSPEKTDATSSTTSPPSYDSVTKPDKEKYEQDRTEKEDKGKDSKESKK
Chain of human NaV1.4 (P35499 whole entry): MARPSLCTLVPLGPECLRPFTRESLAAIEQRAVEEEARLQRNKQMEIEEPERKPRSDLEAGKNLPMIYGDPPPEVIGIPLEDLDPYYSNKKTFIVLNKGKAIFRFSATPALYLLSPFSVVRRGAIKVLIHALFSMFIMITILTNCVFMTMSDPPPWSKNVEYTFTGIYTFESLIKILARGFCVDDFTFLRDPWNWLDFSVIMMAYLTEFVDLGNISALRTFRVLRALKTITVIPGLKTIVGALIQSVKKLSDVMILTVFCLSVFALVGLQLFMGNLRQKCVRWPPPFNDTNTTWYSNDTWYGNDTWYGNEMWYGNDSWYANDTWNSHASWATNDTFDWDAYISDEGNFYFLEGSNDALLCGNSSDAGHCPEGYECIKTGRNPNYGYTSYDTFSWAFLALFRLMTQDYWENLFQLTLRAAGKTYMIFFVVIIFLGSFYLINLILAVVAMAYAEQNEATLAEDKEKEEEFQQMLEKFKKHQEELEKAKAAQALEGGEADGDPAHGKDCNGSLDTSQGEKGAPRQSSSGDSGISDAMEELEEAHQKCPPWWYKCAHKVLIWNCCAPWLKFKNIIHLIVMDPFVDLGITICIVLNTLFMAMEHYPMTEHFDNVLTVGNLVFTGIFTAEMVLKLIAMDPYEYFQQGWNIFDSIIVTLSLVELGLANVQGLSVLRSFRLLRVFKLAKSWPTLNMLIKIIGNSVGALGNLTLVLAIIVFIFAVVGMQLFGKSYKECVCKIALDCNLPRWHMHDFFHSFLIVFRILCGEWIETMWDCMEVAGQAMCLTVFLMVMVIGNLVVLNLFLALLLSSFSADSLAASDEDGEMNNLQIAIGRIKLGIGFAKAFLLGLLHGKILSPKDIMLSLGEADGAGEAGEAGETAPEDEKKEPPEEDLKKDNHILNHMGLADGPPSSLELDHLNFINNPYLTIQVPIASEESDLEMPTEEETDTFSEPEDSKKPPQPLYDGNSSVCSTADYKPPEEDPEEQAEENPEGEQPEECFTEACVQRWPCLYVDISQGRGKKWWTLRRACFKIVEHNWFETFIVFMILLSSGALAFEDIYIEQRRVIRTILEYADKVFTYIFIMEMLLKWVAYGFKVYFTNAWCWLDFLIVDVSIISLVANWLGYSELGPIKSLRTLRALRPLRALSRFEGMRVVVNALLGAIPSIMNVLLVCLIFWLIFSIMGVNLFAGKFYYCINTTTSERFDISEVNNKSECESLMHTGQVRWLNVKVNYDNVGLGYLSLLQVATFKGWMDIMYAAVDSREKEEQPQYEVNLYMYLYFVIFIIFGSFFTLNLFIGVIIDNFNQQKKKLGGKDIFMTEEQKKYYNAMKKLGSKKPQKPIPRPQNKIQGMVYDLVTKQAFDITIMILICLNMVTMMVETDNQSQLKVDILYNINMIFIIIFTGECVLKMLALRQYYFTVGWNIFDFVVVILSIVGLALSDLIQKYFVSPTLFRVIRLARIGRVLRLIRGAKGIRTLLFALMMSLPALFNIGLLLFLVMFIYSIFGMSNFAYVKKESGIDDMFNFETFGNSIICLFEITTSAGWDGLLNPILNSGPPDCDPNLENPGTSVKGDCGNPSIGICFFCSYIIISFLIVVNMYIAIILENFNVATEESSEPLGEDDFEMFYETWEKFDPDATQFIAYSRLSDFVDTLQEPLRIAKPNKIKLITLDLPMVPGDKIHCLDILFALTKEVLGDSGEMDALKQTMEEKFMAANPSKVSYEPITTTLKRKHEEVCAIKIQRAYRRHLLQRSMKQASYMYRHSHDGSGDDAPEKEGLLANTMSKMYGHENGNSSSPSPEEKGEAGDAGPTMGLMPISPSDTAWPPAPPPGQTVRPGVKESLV

The compound “[Nle6;Pra11;Glu28]JzTx-V(1–29) (peptide)” showed a NaV1.7 IC50 (nM), block of human NaV1.7 current, PatchXpress (PX) platform in the data set with human NaV1.7 of 0.5 nM. For `CC[C@H](C)[C@H](NC(=O)[C@H](CCC(=O)O)NC(=O)[C@H](CCCCN)NC(=O)[C@H](CCCNC(=N)N)NC(=O)[C@@H]1CSSC[C@@H]2NC(=O)[C@H](C)NC(=O)[C@H](CCCNC(=N)N)NC(=O)[C@H](CCCCN)NC(=O)[C@H](CO)NC(=O)[C@H](CC(=O)O)NC(=O)[C@@H]3CSSC[C@H](NC(=O)[C@H](CCCNC(=N)N)NC(=O)[C@H](CC(C)C)NC(=O)CNC(=O)[C@H](CCC(=O)O)NC(=O)[C@H](CSSC[C@H](NC(=O)[C@@H](N)Cc4ccc(O)cc4)C(=O)N[C@@H](CCC(N)=O)C(=O)N[C@@H](CCCCN)C(=O)N[C@@H](Cc4c[nH]c5ccccc45)C(=O)N[C@@H](CCSC)C(=O)N[C@@H](Cc4c[nH]c5ccccc45)C(=O)N[C@@H]([C@@H](C)O)C(=O)N3)NC2=O)C(=O)N[C@@H](CCCCN)C(=O)N[C@@H](CC(C)C)C(=O)N[C@@H](Cc2c[nH]c3ccccc23)C(=O)N1)C(N)=O` [Peptide 1, [Glu28]JzTx-V(1–29)], the half-inhibitory concentration (IC50) at human NaV1.5 [1] is above 5000 nM. Besides, at human NaV1.4 (PX platform IC50 ratio), the “selectivity for NaV1.7 over NaV1.4” value came to 500 fold. In the data set with human NaV1.7, [Glu28]JzTx-V(1–29) (peptide) registered a NaV1.7 IC50 (nM), block of human NaV1.7 current, PatchXpress (PX) platform of 0.6 nM.

Pra-[Nle6]JzTx-V(1–29) (peptide) showed a NaV1.7 IC50 (nM), block of human NaV1.7 current, PatchXpress (PX) platform in the data set with human NaV1.7 of 1.2 nM. [Pra1;Nle6;Glu28]JzTx-V(1–29) (peptide): the NaV1.7 IC50 (nM), block of human NaV1.7 current, PatchXpress (PX) platform in the data set with human NaV1.7 came out at 0.3 nM. With `C#CC[C@@H]1NC(=O)[C@@H]2CSSC[C@H](NC(=O)[C@@H](N)Cc3ccc(O)cc3)C(=O)N[C@@H](CCC(N)=O)C(=O)N[C@@H](CCCCN)C(=O)N[C@@H](Cc3c[nH]c4ccccc34)C(=O)N[C@@H](CCCC)C(=O)N[C@@H](Cc3c[nH]c4ccccc34)C(=O)N[C@@H]([C@@H](C)O)C(=O)N[C@H]3CSSC[C@H](NC(=O)[C@H](CCCNC(=N)N)NC(=O)[C@H](CC(C)C)NC(=O)CNC1=O)C(=O)N[C@@H](CCCCN)C(=O)N[C@@H](CC(C)C)C(=O)N[C@@H](Cc1c[nH]c4ccccc14)C(=O)N[C@H](C(=O)N[C@@H](CCCNC(=N)N)C(=O)N[C@@H](CCCCN)C(=O)N[C@@H](CCC(=O)O)C(=O)N[C@H](C(N)=O)[C@@H](C)CC)CSSC[C@H](NC(=O)[C@H](C)NC(=O)[C@H](CCCNC(=N)N)NC(=O)[C@H](CCCCN)NC(=O)[C@H](CO)NC(=O)[C@H](CC(=O)O)NC3=O)C(=O)N2` [Peptide 7, [Nle6;Pra17;Glu28]JzTx-V(1–29)], the IC50 stood at 3100 nM against human NaV1.5 [2] and 130 nM against human NaV1.4. Take `C#CC[C@H](N)C(=O)N[C@H]1CSSC[C@@H]2NC(=O)[C@@H]3CSSC[C@@H](C(=O)N[C@@H](CCCNC(=N)N)C(=O)N[C@@H](CCCCN)C(=O)N[C@@H](CCC(=O)O)C(=O)N[C@H](C(N)=O)[C@@H](C)CC)NC(=O)[C@H](Cc4c[nH]c5ccccc45)NC(=O)[C@H](CC(C)C)NC(=O)[C@H](CCCCN)NC(=O)[C@H](CSSC[C@H](NC(=O)[C@H]([C@@H](C)O)NC(=O)[C@H](Cc4c[nH]c5ccccc45)NC(=O)[C@H](CCCC)NC(=O)[C@H](Cc4c[nH]c5ccccc45)NC(=O)[C@H](CCCCN)NC(=O)[C@H](CCC(N)=O)NC1=O)C(=O)N[C@@H](CC(=O)O)C(=O)N[C@@H](CO)C(=O)N[C@@H](CCCCN)C(=O)N[C@@H](CCCNC(=N)N)C(=O)N[C@@H](C)C(=O)N3)NC(=O)[C@H](CCCNC(=N)N)NC(=O)[C@H](CC(C)C)NC(=O)CNC(=O)[C@H](CCC(=O)O)NC2=O` [Peptide 4, [Pra1;Nle6;Glu28]JzTx-V(1–29)]: the IC50 against human NaV1.5 [2] came out at 4600 nM; against human NaV1.4, 89 nM.

With “[Nle6;Pra14;Glu28]JzTx-V(1–29) (peptide)”, the NaV1.7 IC50 (nM), block of human NaV1.7 current, PatchXpress (PX) platform with human NaV1.7 is 0.5 nM. The same measure, in the same setting: for “CyA-[Nle6;Pra17;Glu28]JzTx-V(1–29) (peptide)” the value was 0.8 nM; for “[Nle6;Pra17;Glu28]JzTx-V(1–29) (peptide)”, 3.6 nM.

The record behind these values is PMC5933747 (PLoS ONE, 2018).
